Results: paper PMC6370554

Biological target: biotinylated histone H3K27me3 (21-44) peptide (UniProt P68431)
Test: ELISA

- HRP ELISA signal:background ratio (H3K27me3 over unmodified H3): 6
Substance: Pcαα fusion protein (tandem human CBX8 PCDs, mCherry, VP64) (from UniProt Q9HC52 1-62; Q9HC52 1-62) (designed binder)
